Assay results from patent US20030181404.

B1: CHK (murine Ctk) immunoprecipitated from mouse brain (protein)
chain: MARRSSRVSWLAFEGWESRDLPRVSPRLFGAWHPAPAAARMPTRWAPGTQCMTKCENSRPKPGELAFRKGDMVTILEACEDKSWYRAKHHGSGQEGLLAAAALRHGEALSTDPKLSLMPWFHGKISGQEAIQQLQPPEDGLFLVRESARHPGDYVLCVSFGRDVIHYRVLHRDGHLTIDEAVCFCNLMDMVEHYTKDKGAICTKLVKPRRKQGAKSAEEELAKAGWLLDLQHLTLGAQIGEGEFGAVLQGEYLGQKVAVKNIKCDVTAQAFLDETAVMTKLQHRNLVRLLGVILHHGLYIVMEHVSKGNLVNFLRTRGRALVSTSQLLQFALHVAEGMEYLESKKLVHRDLAARNILVSEDLVAKVSDFGLAKAERKGLDSSRLPVKWTAPEALKNGRFSSKSDVWSFGVLLWEVFSYGRAPYPKMSLKEVSEAVEKGYRMEPPDGCPGSVHTLMGSCWEAEPARRPPFRKIVEKLGRELRSVGVSAPAGGQEAEGSAPTRSQDP
B2: Csk (murine) immunoprecipitated from mouse brain (protein)
chain: SAIQAAWPSGTECIAKYNFHGTAEQDLPFCKGDVLTIVAVTKDPNWYKAKNKVGREGIIPANYVQKREGVKAGTKLSLMPWFHGKITREQAERLLYPPETGLFLVRESTNYPGDYTLCVSCEGKVEHYRIMYHASKLSIDEEVYFENLMQLVEHYTTDADGLCTRLIKPKVMEGTVAAQDEFYRSGWALNMKELKLLQTIGKGEFGDVMLGDYRGNKVAVKCIKNDATAQAFLAEASVMTQLRHSNLVQLLGVIVEEKGGLYIVTEYMAKGSLVDYLRSRGRSVLGGDCLLKFSLDVCEAMEYLEGNNFVHRDLAARNVLVSEDNVAKVSDFGLTKEASSTQDTGKLPVKWTAPEALREKKFSTKSDVWSFGILLWEIYSFGRVPYPRIPLKDVVPRVEKGYKMDAPDGCPPAVYEVMKNCWHLDAATRPTFLQLREQLEHIKTHELHL

Protein	in vitro kinase assay of immunoprecipitates (32P incorporation into substrate) (enolase)	in vitro kinase assay of immunoprecipitates (32P incorporation into substrate) (C-terminal src peptide)
B1	both kinases phosphoylated the C-terminal scr peptide, enolase and poly Glu/Try to similar degrees	both kinases phosphoylated the C-terminal scr peptide, enolase and poly Glu/Try to similar degrees
B2	both kinases phosphoylated the C-terminal scr peptide, enolase and poly Glu/Try to similar degrees	both kinases phosphoylated the C-terminal scr peptide, enolase and poly Glu/Try to similar degrees
